Two proteins from article PMC7072996, “Engineering Herbicide-Tolerance Rice Expressing an Acetohydroxyacid Synthase with a Single Amino Acid Deletion” (International Journal of Molecular Sciences, 2020) can be followed below.

Substrate in the data set: CC(=O)C(=O)O
As to the kind of experiment: acetolactate to acetoin, creatine/naphthol colorimetric A525, Michaelis-Menten. As to conditions: pH 7.5 phosphate, 10 mM MgCl2, 20 uM FAD, 1 mM thiamine pyrophosphate, 37 °C, no herbicide. Format: biochemical, Oryza sativa. The text has this: acetolactate to acetoin, creatine/naphthol colorimetric A525, Michaelis-Menten on AHAS-WT (rice acetohydroxyacid synthase)

B1: AHAS-WT (rice acetohydroxyacid synthase) (Oryza sativa Japonica Group; DEL548-548) (protein)
chain: TPLRPWGPAEPRKGADILVEALERCGVSDVFAYPGGASMEIHQALTRSPVITNHLFRHEQGEAFAASGYARASGRVGVCVATSGPGATNLVSALADALLDSVPMVAITGQVPRRMIGTDAFQETPIVEVTRSITKHNYLVLDVEDIPRVIQEAFFLASSGRPGPVLVDIPKDIQQQMAVPVWDTSMNLPGYIARLPKPPATELLEQVLRLVGESRRPILYVGGGCSASGDELRWFVELTGIPVTTTLMGLGNFPSDDPLSLRMLGMHGTVYANYAVDKADLLLAFGVRFDDRVTGKIEAFASRAKIVHIDIDPAEIGKNKQPHVSICADVKLALQGLNALLQQSTTKTSSDFSAWHNELDQQKREFPLGYKTFGEEIPPQYAIQVLDELTKGEAIIATGVGQHQMWAAQYYTYKRPRQWLSSAGLGAMGFGLPAAAGASVANPGVTVVDIDGDGSFLMNIQELALIRIENLPVKVMVLNNQHLGMVVQEDRFYKANRAHTYLGNPECESEIYPDFVTIAKGFNIPAVRVTKKSEVRAAIKKMLETPGPYLLDIIVPHQEHVLPMIPSGGAFKDMILDGDGRTVY
notes: mature AHAS, N-terminal 59-residue signal (transit) peptide removed; pGEX4T2, E. coli Rosetta; GST tag cut by thrombin; 64 kDa; WT mainly dimer (128 kDa), small tetramer peak (256 kDa); deletion mutant dimer only
The term Km denotes the substrate concentration at which the rate is half of its maximum. What is called kcat is the maximal rate divided by the concentration of active sites. For orientation: kcat/Km means the second-order rate constant that governs catalysis at low substrate concentration. As to B1, the Km was determined as 9.4 ± 0.4 mM, the kcat turned out to be 6.6 ± 0.5 s⁻¹ and the kcat/Km worked out at 700 ± 50 M⁻¹ s⁻¹.

B2: AHAS-WT (rice acetohydroxyacid synthase) (Oryza sativa Japonica Group) (protein)
chain: TPLRPWGPAEPRKGADILVEALERCGVSDVFAYPGGASMEIHQALTRSPVITNHLFRHEQGEAFAASGYARASGRVGVCVATSGPGATNLVSALADALLDSVPMVAITGQVPRRMIGTDAFQETPIVEVTRSITKHNYLVLDVEDIPRVIQEAFFLASSGRPGPVLVDIPKDIQQQMAVPVWDTSMNLPGYIARLPKPPATELLEQVLRLVGESRRPILYVGGGCSASGDELRWFVELTGIPVTTTLMGLGNFPSDDPLSLRMLGMHGTVYANYAVDKADLLLAFGVRFDDRVTGKIEAFASRAKIVHIDIDPAEIGKNKQPHVSICADVKLALQGLNALLQQSTTKTSSDFSAWHNELDQQKREFPLGYKTFGEEIPPQYAIQVLDELTKGEAIIATGVGQHQMWAAQYYTYKRPRQWLSSAGLGAMGFGLPAAAGASVANPGVTVVDIDGDGSFLMNIQELALIRIENLPVKVMVLNNQHLGMVVQWEDRFYKANRAHTYLGNPECESEIYPDFVTIAKGFNIPAVRVTKKSEVRAAIKKMLETPGPYLLDIIVPHQEHVLPMIPSGGAFKDMILDGDGRTVY
notes: as for B1
As to B2, the Michaelis constant (Km) was 9.2 ± 0.4 mM, the kcat came to 6.7 ± 0.3 s⁻¹ and the kcat/Km worked out at 710 ± 30 M⁻¹ s⁻¹.
